Measured values from patent US20200199241A1 (Chugai, published 2020).

T1: human FcγRIIa(R) (human, UniProt P12318 36-217)
T1 construct: also called FcgRIIaR; FcγRIIa type R
T1 chain: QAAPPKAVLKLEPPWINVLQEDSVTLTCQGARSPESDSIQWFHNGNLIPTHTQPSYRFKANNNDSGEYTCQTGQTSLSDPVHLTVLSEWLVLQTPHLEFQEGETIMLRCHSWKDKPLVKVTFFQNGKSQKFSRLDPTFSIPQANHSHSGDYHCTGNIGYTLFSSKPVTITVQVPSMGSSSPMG

T2: human FcγRIIb (human, UniProt P31994 43-217, limits assumed)
T2 construct: also called FcgRIIb
T2 sequence: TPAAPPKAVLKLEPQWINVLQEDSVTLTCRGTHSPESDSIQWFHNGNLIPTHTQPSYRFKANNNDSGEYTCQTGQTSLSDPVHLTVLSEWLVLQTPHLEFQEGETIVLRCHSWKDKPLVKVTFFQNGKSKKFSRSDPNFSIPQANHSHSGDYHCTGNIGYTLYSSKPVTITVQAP

T3: human FcγRIIa(H) (human, UniProt P12318 36-217)
T3 construct: also called FcgRIIaH; FcγRIIa type H
T3 sequence: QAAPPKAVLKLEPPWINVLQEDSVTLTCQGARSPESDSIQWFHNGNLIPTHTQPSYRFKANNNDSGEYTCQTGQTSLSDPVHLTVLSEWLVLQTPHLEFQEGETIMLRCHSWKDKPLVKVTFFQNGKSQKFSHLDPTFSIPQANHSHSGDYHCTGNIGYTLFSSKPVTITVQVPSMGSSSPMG


Columns and labels:
Assay in all cases: SPR (Biacore);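 also: antibody variants captured on sensor chip, Fcγ receptor flowed over at 25 °C, bound receptor normalized to amount of captured antibody, expressed relative to reference antibody set as 100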
human FcγRIIa(R) = biological target: T1, human FcγRIIa(R)
Description: (§1) Interaction between each modified antibody and Fcγ receptor prepared in the manner described above was analyzed using the BIACORE™ T100 surface plasmon resonance system (GE Healthcare), BIACORE™ T200 surface plasmon resonance system (GE Healthcare), BIACORE™ A100 surface plasmon resonance system or BIACORE™ 4000 surface plasmon resonance system. HBS-EP+ (GE Healthcare) was used for the running buffer, and measurements were carried out at 25° C. The chips used were chips in which antigen peptides, Protein A (Thermo Scientific), Protein A/G (Thermo Scientific) or Protein L (ACTIGEN® protein (Alltech or BioVision) were immobilized on the Series S Sensor Chip CMS (GE Healthcare) or Series S Sensor Chip CM4 (GE Healthcare) by amine coupling, or chips in which preliminarily biotinylated antigen peptides were allowed to interact and then immobilized on the Series S Sensor Chip SA (certified) (GE Healthcare). The target antibodies were captured on these sensor chips, Fcγ receptor diluted with the running buffer was allowed to interact, followed by measurement of the amount of bound antibody. The amounts bound were compared between antibodies. However, since the amount of Fcγ receptor bound depends on the amount of captured antibody, the values used for comparison were first corrected by dividing the amount of Fcγ receptor bound by the captured amount of each antibody. Through reaction with 10 mM glycine-HCl at pH 1.5, the sensor chips were regenerated by washing off antibody captured on the sensor chips and used repeatedly.
(§2) Binding strength was evaluated according to the following method based on the results of analyzing the interaction with each FcγR. […] That value was then further multiplied by 100, and the resulting value was used as an indicator of relative binding activity to each FcγR.

human FcγRIIIa(F) = biological target: T4, human FcγRIIIa(F) (human, UniProt P08637 17-208, limits assumed)
T4 construct: also called FcgRIIIaF; allotype F158
Description: as §1, §2

human FcγRIIb = biological target: T2, human FcγRIIb
Description: as §1, §2

human FcγRIIa(H) = biological target: T3, human FcγRIIa(H)
Description: as §1, §2

human FcγRIa = biological target: T5, human FcγRIa (human, UniProt P12314 16-292, limits assumed)
T5 construct: also called FcgRIa; FcγRI (CD64)
T5 sequence (P12314 16-292 limits assumed): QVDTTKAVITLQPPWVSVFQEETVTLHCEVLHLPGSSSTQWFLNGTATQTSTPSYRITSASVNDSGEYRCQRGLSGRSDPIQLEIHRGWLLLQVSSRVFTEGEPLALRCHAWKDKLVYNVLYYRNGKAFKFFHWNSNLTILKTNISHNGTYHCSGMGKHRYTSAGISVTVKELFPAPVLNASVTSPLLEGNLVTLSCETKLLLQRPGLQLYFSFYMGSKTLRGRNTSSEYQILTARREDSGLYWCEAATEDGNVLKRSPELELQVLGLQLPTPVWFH
Description: as §1, §2

T4 sequence (P08637 other isoform, or with tags, fused parts or gaps limits assumed): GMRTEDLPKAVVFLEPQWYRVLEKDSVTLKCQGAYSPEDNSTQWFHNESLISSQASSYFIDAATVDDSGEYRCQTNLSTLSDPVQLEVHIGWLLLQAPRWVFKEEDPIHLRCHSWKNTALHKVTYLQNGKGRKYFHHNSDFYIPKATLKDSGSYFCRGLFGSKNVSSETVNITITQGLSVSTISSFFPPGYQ

Binder	relative binding activity (human FcγRIIa(R))	relative binding activity (human FcγRIIIa(F))	relative binding activity (human FcγRIIb)	relative binding activity (human FcγRIIa(H))	relative binding activity (human FcγRIa)
GpH7-B3 variant L234A/GpL16-k0 (antibody, human IgG1, copies: 2 + 2) heavy: not shown light: DIVMTQSPLSLPVTPGEPASISCQASESLVHSNRNTYLHWYLQKPGQSPQLLIYKVSNRFSGVPDRFSGSGSGTDFTLKISRVEAEDVGVYYCSQNTHVPPTFGQGTKVEIE	26 % of GpH7-B3/GpL16-k0	22 % of GpH7-B3/GpL16-k0	24 % of GpH7-B3/GpL16-k0	25 % of GpH7-B3/GpL16-k0	79 % of GpH7-B3/GpL16-k0
GpH7-B3 variant L234F/GpL16-k0 (antibody, human IgG1, copies: 2 + 2) heavy: not shown light: DIVMTQSPLSLPVTPGEPASISCQASESLVHSNRNTYLHWYLQKPGQSPQLLIYKVSNRFSGVPDRFSGSGSGTDFTLKISRVEAEDVGVYYCSQNTHVPPTFGQGTKVEIE	52 % of GpH7-B3/GpL16-k0	49 % of GpH7-B3/GpL16-k0	68 % of GpH7-B3/GpL16-k0	62 % of GpH7-B3/GpL16-k0	96 % of GpH7-B3/GpL16-k0
GpH7-B3 variant L234H/GpL16-k0 (antibody, human IgG1, copies: 2 + 2) heavy: not shown light: DIVMTQSPLSLPVTPGEPASISCQASESLVHSNRNTYLHWYLQKPGQSPQLLIYKVSNRFSGVPDRFSGSGSGTDFTLKISRVEAEDVGVYYCSQNTHVPPTFGQGTKVEIE	21 % of GpH7-B3/GpL16-k0	32 % of GpH7-B3/GpL16-k0	24 % of GpH7-B3/GpL16-k0	29 % of GpH7-B3/GpL16-k0	65 % of GpH7-B3/GpL16-k0
GpH7-B3 variant L234D/GpL16-k0 (antibody, human IgG1, copies: 2 + 2) heavy: not shown light: DIVMTQSPLSLPVTPGEPASISCQASESLVHSNRNTYLHWYLQKPGQSPQLLIYKVSNRFSGVPDRFSGSGSGTDFTLKISRVEAEDVGVYYCSQNTHVPPTFGQGTKVEIE	51 % of GpH7-B3/GpL16-k0	51 % of GpH7-B3/GpL16-k0	77 % of GpH7-B3/GpL16-k0	18 % of GpH7-B3/GpL16-k0	31 % of GpH7-B3/GpL16-k0
GpH7-B3 variant L234E/GpL16-k0 (antibody, human IgG1, copies: 2 + 2) heavy: not shown light: DIVMTQSPLSLPVTPGEPASISCQASESLVHSNRNTYLHWYLQKPGQSPQLLIYKVSNRFSGVPDRFSGSGSGTDFTLKISRVEAEDVGVYYCSQNTHVPPTFGQGTKVEIE	48 % of GpH7-B3/GpL16-k0	63 % of GpH7-B3/GpL16-k0	62 % of GpH7-B3/GpL16-k0	21 % of GpH7-B3/GpL16-k0	82 % of GpH7-B3/GpL16-k0

Further lines, results first:

relative binding activity (human FcγRIIa(R))	relative binding activity (human FcγRIIIa(F))	relative binding activity (human FcγRIIb)	relative binding activity (human FcγRIIa(H))	relative binding activity (human FcγRIa)	Binder
-2 % of GpH7-B3/GpL16-k0	1 % of GpH7-B3/GpL16-k0	-3 % of GpH7-B3/GpL16-k0	1 % of GpH7-B3/GpL16-k0	54 % of GpH7-B3/GpL16-k0	GpH7-B3 variant L234K/GpL16-k0 (antibody, human IgG1, copies: 2 + 2) heavy: not shown light: DIVMTQSPLSLPVTPGEPASISCQASESLVHSNRNTYLHWYLQKPGQSPQLLIYKVSNRFSGVPDRFSGSGSGTDFTLKISRVEAEDVGVYYCSQNTHVPPTFGQGTKVEIE
36 % of GpH7-B3/GpL16-k0	47 % of GpH7-B3/GpL16-k0	44 % of GpH7-B3/GpL16-k0	35 % of GpH7-B3/GpL16-k0	67 % of GpH7-B3/GpL16-k0	GpH7-B3 variant L234N/GpL16-k0 (antibody, human IgG1, copies: 2 + 2) heavy: not shown light: DIVMTQSPLSLPVTPGEPASISCQASESLVHSNRNTYLHWYLQKPGQSPQLLIYKVSNRFSGVPDRFSGSGSGTDFTLKISRVEAEDVGVYYCSQNTHVPPTFGQGTKVEIE
65 % of GpH7-B3/GpL16-k0	50 % of GpH7-B3/GpL16-k0	53 % of GpH7-B3/GpL16-k0	57 % of GpH7-B3/GpL16-k0	100 % of GpH7-B3/GpL16-k0	GpH7-B3 variant L234M/GpL16-k0 (antibody, human IgG1, copies: 2 + 2) heavy: not shown light: DIVMTQSPLSLPVTPGEPASISCQASESLVHSNRNTYLHWYLQKPGQSPQLLIYKVSNRFSGVPDRFSGSGSGTDFTLKISRVEAEDVGVYYCSQNTHVPPTFGQGTKVEIE
41 % of GpH7-B3/GpL16-k0	45 % of GpH7-B3/GpL16-k0	33 % of GpH7-B3/GpL16-k0	45 % of GpH7-B3/GpL16-k0	83 % of GpH7-B3/GpL16-k0	GpH7-B3 variant L234P/GpL16-k0 (antibody, human IgG1, copies: 2 + 2) heavy: not shown light: DIVMTQSPLSLPVTPGEPASISCQASESLVHSNRNTYLHWYLQKPGQSPQLLIYKVSNRFSGVPDRFSGSGSGTDFTLKISRVEAEDVGVYYCSQNTHVPPTFGQGTKVEIE
